# Measurements as given in EP4257134A2 (Immunomedics, Inc., dated 2023).
# B1: hRS7-CL2-SN-38 (antibody, INN chains, looked up, V domains shown, part only)
# VH: QVQLQQSGSELKKPGASVKVSCKASGYTFTNYGMNWVKQAPGQGLKWMGWINTYTGEPTYTDDFKGRFAFSLDTSVSTAYLQISSLKADDTAVYFCARGGFGSSYWYFDVWGQGSLVTVSS
# VL: DIQLTQSPSSLSASVGDRVSITCKASQDVSIAVAWYQQKPGKAPKLLIYSASYRYTGVPDRFSGSGSGTDFTLTISSLQPEDFAVYYCQQHYITPLTFGAGTKVEIK
# modifications: SN-38 via CL2 linker
# B2: hRS7 IgG (humanized RS7 anti-Trop-2 antibody, unconjugated) (antibody, V domains shown)
# VH: B1 VH
# VL: DIQLTQSPSSLSASVGDRVSITCKASQDVSIAVAWYQQKPGKAPKLLIYSASYRYTGVPDRFSGSGSGTDFTLTISSLQPEDFAVYYCQQHYITPLTFGAGTKVEIKR
# Tests used:
# [1] = target: CD74 (invariant chain, Ii) (human) (UniProt P04233); experiment: cell binding to antigen-positive cells (cell line not given)
# CD74 (invariant chain, Ii) (human), sequence (P04233 whole entry, change not shown): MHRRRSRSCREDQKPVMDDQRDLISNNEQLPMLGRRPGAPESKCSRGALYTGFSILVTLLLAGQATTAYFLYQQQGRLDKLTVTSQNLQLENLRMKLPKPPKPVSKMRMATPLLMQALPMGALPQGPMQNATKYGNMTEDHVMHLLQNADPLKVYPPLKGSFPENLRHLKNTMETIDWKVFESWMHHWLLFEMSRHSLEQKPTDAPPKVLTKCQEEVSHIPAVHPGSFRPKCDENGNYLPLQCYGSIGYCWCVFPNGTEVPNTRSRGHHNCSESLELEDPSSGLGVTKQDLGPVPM
# [2] = target: CD74 (invariant chain, Ii) (human) (UniProt P04233); experiment: flow cytometry, surface and cytoplasmic (permeabilized cells); NCI-N87 (background 6)
# [3] = target: CD74 (invariant chain, Ii) (human) (UniProt P04233); experiment: flow cytometry, surface and cytoplasmic (permeabilized cells); A-375
# [4] = target: CD74 (invariant chain, Ii) (human) (UniProt P04233); experiment: flow cytometry, surface and cytoplasmic (permeabilized cells); NCI-N87
# [5] = target: CD74 (invariant chain, Ii) (human) (UniProt P04233); experiment: flow cytometry, surface and cytoplasmic (permeabilized cells); Capan-1
# [6] = target: CD74 (invariant chain, Ii) (human) (UniProt P04233); experiment: flow cytometry, surface and cytoplasmic (permeabilized cells); Raji
# [7] = target: CD74 (invariant chain, Ii) (human) (UniProt P04233); experiment: flow cytometry, surface and cytoplasmic (permeabilized cells); Raji (background 5)
# [8] = target: CD74 (invariant chain, Ii) (human) (UniProt P04233); experiment: flow cytometry, surface and cytoplasmic (permeabilized cells); Hs746T
# [9] = target: CD74 (invariant chain, Ii) (human) (UniProt P04233); experiment: flow cytometry, surface only; Capan-1 cells
# [10] = target: CD74 (invariant chain, Ii) (human) (UniProt P04233); experiment: flow cytometry, surface and cytoplasmic (permeabilized cells); HuH-7
# [11] = target: CD74 (invariant chain, Ii) (human) (UniProt P04233); experiment: flow cytometry, surface only; Hep-G2 cells (background 6, GAH-FITC only)
# [12] = target: CD74 (invariant chain, Ii) (human) (UniProt P04233); experiment: flow cytometry, surface and cytoplasmic (permeabilized cells); HuH-7 (background 4)
# [13] = target: CD74 (invariant chain, Ii) (human) (UniProt P04233); experiment: flow cytometry, surface only; Capan-1 cells (background 12, GAH-FITC only)
# [14] = target: CD74 (invariant chain, Ii) (human) (UniProt P04233); experiment: flow cytometry, surface and cytoplasmic (permeabilized cells); Hep-G2 (background 5)
# [15] = target: CD74 (invariant chain, Ii) (human) (UniProt P04233); experiment: flow cytometry, surface and cytoplasmic (permeabilized cells); Hs746T (background 5)
# [16] = target: CD74 (invariant chain, Ii) (human) (UniProt P04233); experiment: flow cytometry, surface only; A-375 cells
# [17] = target: CD74 (invariant chain, Ii) (human) (UniProt P04233); experiment: flow cytometry, surface and cytoplasmic (permeabilized cells); Capan-1 (background 5)
# [18] = target: CD74 (invariant chain, Ii) (human) (UniProt P04233); experiment: flow cytometry, surface and cytoplasmic (permeabilized cells); Hep-G2
# [19] = target: CD74 (invariant chain, Ii) (human) (UniProt P04233); experiment: flow cytometry, surface only; Hep-G2 cells
# [20] = target: CD74 (invariant chain, Ii) (human) (UniProt P04233); experiment: flow cytometry, surface only; A-375 cells (background 3, GAH-FITC only)
# [21] = target: CD74 (invariant chain, Ii) (human) (UniProt P04233); experiment: flow cytometry, surface only; NCI-N87 cells
# [22] = target: CD74 (invariant chain, Ii) (human) (UniProt P04233); experiment: flow cytometry, surface only; NCI-N87 cells (background 4, GAH-FITC only)
# [23] = target: CD74 (invariant chain, Ii) (human) (UniProt P04233); experiment: flow cytometry, surface only; Raji cells
# [24] = target: CD74 (invariant chain, Ii) (human) (UniProt P04233); experiment: flow cytometry, surface only; Hs746T cells
# [25] = target: CD74 (invariant chain, Ii) (human) (UniProt P04233); experiment: flow cytometry, surface only; Raji cells (background 3, GAH-FITC only)
# [26] = target: CD74 (invariant chain, Ii) (human) (UniProt P04233); experiment: flow cytometry, surface and cytoplasmic (permeabilized cells); A-375 (background 6)
# [27] = target: CD74 (invariant chain, Ii) (human) (UniProt P04233); experiment: flow cytometry, surface only; HuH-7 cells (background 5, GAH-FITC only)
# [28] = target: CD74 (invariant chain, Ii) (human) (UniProt P04233); experiment: flow cytometry, surface only; Hs746T cells (background 8, GAH-FITC only)
# [29] = target: CD74 (invariant chain, Ii) (human) (UniProt P04233); experiment: flow cytometry, surface only; HuH-7 cells
# CD20 (human) [30] = target: CD20 (human) (UniProt P11836); experiment: flow cytometry with the unconjugated specific antibody, FITC goat anti-human IgG; 697 cells (background 4.2)
# CD20 (human), sequence (P11836 whole entry): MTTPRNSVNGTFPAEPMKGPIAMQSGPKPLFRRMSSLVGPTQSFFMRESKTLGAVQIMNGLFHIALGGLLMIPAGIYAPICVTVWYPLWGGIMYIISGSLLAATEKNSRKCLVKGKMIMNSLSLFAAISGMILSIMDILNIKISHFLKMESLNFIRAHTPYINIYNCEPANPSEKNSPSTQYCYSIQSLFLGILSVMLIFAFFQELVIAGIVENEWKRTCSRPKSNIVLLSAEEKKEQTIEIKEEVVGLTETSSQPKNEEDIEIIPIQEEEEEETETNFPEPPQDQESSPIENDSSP
# CD20 (human) [31] = target: CD20 (human) (UniProt P11836); experiment: flow cytometry with the unconjugated specific antibody, FITC goat anti-human IgG; REH cells (background 4.1)
# CD20 (human) [32] = target: CD20 (human) (UniProt P11836); experiment: flow cytometry with the unconjugated specific antibody, FITC goat anti-human IgG; WSU-FSCCL cells (background 4.9)
# CD20 (human) [33] = target: CD20 (human) (UniProt P11836); experiment: flow cytometry with the unconjugated specific antibody, FITC goat anti-human IgG; MN-60 cells (background 5.8)
# CD20 (human) [34] = target: CD20 (human) (UniProt P11836); experiment: flow cytometry with the unconjugated specific antibody, FITC goat anti-human IgG; RS4;11 cells (background 4.1)
# CD20 (human) [35] = target: CD20 (human) (UniProt P11836); experiment: flow cytometry with the unconjugated specific antibody, FITC goat anti-human IgG; Jeko-1 cells (background 6.5)
# CD20 (human) [36] = target: CD20 (human) (UniProt P11836); experiment: flow cytometry with the unconjugated specific antibody, FITC goat anti-human IgG; Raji cells (background 6.8)
# CD20 (human) [37] = target: CD20 (human) (UniProt P11836); experiment: flow cytometry with the unconjugated specific antibody, FITC goat anti-human IgG; Ramos cells (background 4.1)
# CD20 (human) [38] = target: CD20 (human) (UniProt P11836); experiment: flow cytometry with the unconjugated specific antibody, FITC goat anti-human IgG; Daudi cells (background 5.9)
# CD22 (human) [39] = target: CD22 (human) (UniProt P20273); experiment: flow cytometry with the unconjugated specific antibody, FITC goat anti-human IgG; 697 cells (background 4.2)
# CD22 (human) [40] = target: CD22 (human) (UniProt P20273); experiment: flow cytometry with the unconjugated specific antibody, FITC goat anti-human IgG; REH cells (background 4.1)
# CD22 (human) [41] = target: CD22 (human) (UniProt P20273); experiment: flow cytometry with the unconjugated specific antibody, FITC goat anti-human IgG; WSU-FSCCL cells (background 4.9)
# CD22 (human) [42] = target: CD22 (human) (UniProt P20273); experiment: flow cytometry with the unconjugated specific antibody, FITC goat anti-human IgG; MN-60 cells (background 5.8)
# CD22 (human) [43] = target: CD22 (human) (UniProt P20273); experiment: flow cytometry with the unconjugated specific antibody, FITC goat anti-human IgG; RS4;11 cells (background 4.1)
# CD22 (human) [44] = target: CD22 (human) (UniProt P20273); experiment: flow cytometry with the unconjugated specific antibody, FITC goat anti-human IgG; Jeko-1 cells (background 6.5)
# CD22 (human) [45] = target: CD22 (human) (UniProt P20273); experiment: flow cytometry with the unconjugated specific antibody, FITC goat anti-human IgG; Raji cells (background 6.8)
# CD22 (human) [46] = target: CD22 (human) (UniProt P20273); experiment: flow cytometry with the unconjugated specific antibody, FITC goat anti-human IgG; Ramos cells (background 4.1)
# CD22 (human) [47] = target: CD22 (human) (UniProt P20273); experiment: flow cytometry with the unconjugated specific antibody, FITC goat anti-human IgG; Daudi cells (background 5.9)
# CEACAM6 (human) [48] = target: CEACAM6 (human) (UniProt P40199); experiment: flow cytometry; Hep-G2 cells
# CEACAM6 (human), sequence (P40199 35-320): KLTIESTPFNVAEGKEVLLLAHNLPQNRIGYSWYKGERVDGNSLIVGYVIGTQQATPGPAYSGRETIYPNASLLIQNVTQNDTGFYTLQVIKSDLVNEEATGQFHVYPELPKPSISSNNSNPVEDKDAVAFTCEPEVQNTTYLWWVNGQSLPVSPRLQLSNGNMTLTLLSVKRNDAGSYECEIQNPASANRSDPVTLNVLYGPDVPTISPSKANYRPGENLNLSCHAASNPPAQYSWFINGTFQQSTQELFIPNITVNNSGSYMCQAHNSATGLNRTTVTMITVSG
# CEACAM6 (human) [49] = target: CEACAM6 (human) (UniProt P40199); experiment: flow cytometry, surface; NCI-N87 cells (staining antibody not given)
# CEACAM6 (human) [50] = target: CEACAM6 (human) (UniProt P40199); experiment: flow cytometry, surface; HuH-7 cells (staining antibody not given)
# [51] = target: Human trophoblast cell-surface antigen (Trop-2) (human) (UniProt P09758); experiment: cell binding assay on Trop-2-expressing cells
# [52] = target: T1, Human trophoblast cell-surface antigen (Trop-2) (human, UniProt P09758 27-323); experiment: cell-based or functional assay
# T1 sequence (looked up): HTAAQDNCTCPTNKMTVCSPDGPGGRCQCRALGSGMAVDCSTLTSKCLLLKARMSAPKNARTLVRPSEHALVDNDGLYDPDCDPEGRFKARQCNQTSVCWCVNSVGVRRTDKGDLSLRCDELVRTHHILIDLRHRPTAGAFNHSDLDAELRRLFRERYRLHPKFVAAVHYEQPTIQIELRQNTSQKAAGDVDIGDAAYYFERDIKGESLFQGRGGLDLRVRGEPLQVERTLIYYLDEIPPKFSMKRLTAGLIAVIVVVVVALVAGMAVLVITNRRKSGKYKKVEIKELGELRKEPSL
molecule,measurement,setting,value
Milatuzumab-CL2E-SN-38 (antibody),Kd,[1],0.8 nM
"Milatuzumab (hLL1, humanized anti-CD74 IgG1, unconjugated) (antibody)",MFI,[2],220
same,MFI Ratio hLL1:bkgd,[3],30.8
same,MFI Ratio hLL1:bkgd,[4],36.7
same,MFI Ratio hLL1:bkgd,[5],49.6
same,MFI Ratio hLL1:bkgd,[6],28.6
same,MFI,[7],143
same,MFI Ratio hLL1:bkgd,[8],28.8
same,MFI Ratio hLL1:bkgd,[9],1.8
same,MFI Ratio hLL1:bkgd,[10],28.5
same,MFI,[11],9
same,MFI,[12],114
same,MFI,[13],22
same,MFI,[14],156
same,MFI,[15],144
same,MFI Ratio hLL1:bkgd,[16],5.3
same,MFI,[17],248
same,MFI Ratio hLL1:bkgd,[18],31.2
same,MFI Ratio hLL1:bkgd,[19],1.5
same,MFI,[20],16
same,MFI Ratio hLL1:bkgd,[21],1.3
same,MFI,[22],5
same,MFI Ratio hLL1:bkgd,[23],19.6
same,MFI Ratio hLL1:bkgd,[24],2.1
same,MFI,[25],59
same,MFI,[26],185
same,MFI,[27],8
same,MFI,[28],17
same,Kd,[1],0.77 nM
same,MFI Ratio hLL1:bkgd,[29],1.6
"Veltuzumab (hA20, humanized anti-CD20 IgG1, unconjugated) (antibody)",Median fluorescence,CD20 (human) [30],6.9
same,Median fluorescence,CD20 (human) [31],12.3
same,Median fluorescence,CD20 (human) [32],97.4
same,Median fluorescence,CD20 (human) [33],21.5
same,Median fluorescence,CD20 (human) [34],3.7
same,Median fluorescence,CD20 (human) [35],605
same,Median fluorescence,CD20 (human) [36],422
same,Median fluorescence,CD20 (human) [37],620
same,Median fluorescence,CD20 (human) [38],815
"Epratuzumab (hLL2, humanized anti-CD22 IgG1, unconjugated) (antibody)",Median fluorescence,CD22 (human) [39],16
same,Median fluorescence,CD22 (human) [40],22.9
same,Median fluorescence,CD22 (human) [41],7.7
same,Median fluorescence,CD22 (human) [42],10.3
same,Median fluorescence,CD22 (human) [43],23.3
same,Median fluorescence,CD22 (human) [44],11.2
same,Median fluorescence,CD22 (human) [45],45.9
same,Median fluorescence,CD22 (human) [46],40.8
same,Median fluorescence,CD22 (human) [47],145
Milatuzumab-CL2A-SN-38 (antibody),Kd,[1],0.59 nM
"hMN-15 (humanized anti-CEACAM6 IgG1, unconjugated) (antibody)",MFI,CEACAM6 (human) [48],175
same,MFI,CEACAM6 (human) [49],1120
same,MFI,CEACAM6 (human) [50],81
hRS7-CL2A-SN-38 (antibody),Kd,[51],1.2 nM
B1,Kd,[51],1.2 nM
B2,"ADCC, specific lysis of BxPC-3 target cells by PBMCs (effector to target ratio 100:1; antibody at 33.3 nM)",[52],8.5%
